# Results: paper PMC11912008
# Molecular target: Rabbit (Oryctolagus cuniculus) 80S ribosome (rabbit (endogenous in rabbit reticulocyte lysate)) (UniProt G1U0Q2)
row,IC50 of inhibition of translation of nanoluciferase mRNA in RRL [nM],Substance
1,33,Refolded WT human angiogenin (from UniProt P03950 25-147) (enzyme)
2,440,Refolded angiogenin(K54E) (from UniProt P03950 25-147) (enzyme)
